In patent US20070185028A1, “Compositions and methods for treatment of protein misfolding and protein aggregation diseases” (priority 2004, published 2007) one finds Δfluorescence (Aβ), Thioflavin T, 72 h and Δfluorescence (γD crystallin), Thioflavin T, 72 h data, which are given here for one substance.

One assay addresses beta amyloid (UniProt P05067). In words: cell-based or functional assay.
Assay [1] concerns the target Human γD crystallin (human) (UniProt P07320). In words: cell-based or functional assay.

Chain of Human γD crystallin (human) (P07320 2-174 limits assumed): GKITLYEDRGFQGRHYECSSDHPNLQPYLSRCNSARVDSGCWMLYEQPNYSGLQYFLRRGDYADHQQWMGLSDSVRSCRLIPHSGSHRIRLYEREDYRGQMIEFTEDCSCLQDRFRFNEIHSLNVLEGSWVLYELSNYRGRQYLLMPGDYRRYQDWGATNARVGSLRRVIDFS

In the assay with beta amyloid, “human αB crystallin (from UniProt P02511 1-175)” came in with a Δfluorescence (Aβ), Thioflavin T, 72 h at 50° C (no chaperone: 1,324,974,048) of 3.18e+08. In assay [1], this substance gave a Δfluorescence (γD crystallin), Thioflavin T, 72 h at 50° C (no chaperone: 888,803,840) of 1.08e+09.
